From patent US20230212319A1, “NOVEL ANTIGEN BINDING DOMAINS AND SYNTHETIC ANTIGEN RECEPTORS INCORPORATING THE SAME” (University of Southern California, priority 2020, published 2023) come the findings set out here.

What all share (format): cell-based
The test system of one assay is RAJI cells. Kind of assay: JNG assay, co-culture with RAJI cells. Conditions: JNG cells expressing construct, co-culture with Raji. The method, boiled down:
(§1)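 Jurkat NFAT-GFP (JNG) cells stably transduced with SARs by lentivirus, with drug selection where the construct carried a resistance gene, then co-cultured with target cells at E:T ~1:2 for ~4–18 h. % GFP-positive cells measured by FACS against parental JNG; +/- to 5+ correspond to ~5–50% GFP-positive.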

The next assay deals with L363 cells. The experiment in a line: JNG assay, co-culture with L363 cells. Conditions: co-culture with L363. In short, it runs like this: as §1
Another assay deals with U266 cells. Kind of assay: JNG NFAT-GFP induction on co-culture with U266.

B1: 22150 (protein)
chain: MALPVTALLLPLALLLHAARPACEVQLLESGGGLIQPGGSLRLSCAASGFTFSSHAMTWVRQAPGKGLEWVSAISGSGDYTHYADSVKGRFTISRDNSKNTVYLQMNSLRAEDSAVYYCAKDEDGGSLLGHRGQGTLVTVSSGTGGGGSGGGGSGGGGSEFDVVMTQSPSSLSASVGDRVTITCMASEDIYIRLAWYQQKPGNAPKLLIYAATSLETGVPSRFSGSGSGTDFTLTISSLQPEDFATYYCQQYWSSPWTFGGGTKVEIKLEADVSPKPTIFLPSIAETKLQKAGTYLCLLEKFFPDVIKIHWQEKKSNTILGSQEGNTMKTNDTYMKFSWLTVPEKSLDKEHRCIVRHENNKNGVDQEIIFPPIKTDVITMDPKDNCSKDANDTLLLQLTNTSAYYMYLLLLLKSVVYFAIITCCLLRRTAFCCNGEKSRAKRSGSGATNFSLLKQAGDVEENPGPTSMDWIWRILFLVGAATGAHSGPQVQLQESGGGLAQAGGSLRLSCAASGRTFSMGWFRQAPGKEREFVAAITYSGGSPYYASSVRGRFTISRDNAKNTVYLQMNSLKPEDTAVYYCAANPTYGSDWNAENWGQGTQVTVSSGSGGGGSGGGGSGGGGSFEQVQLQESGPGLVKPSQTLSLTCTVSGYSITSDYTWNWIRQPPGNGLEWIGYITYSGSTSYNPSLKSRVLISVDTSKNQVSLKLSSVTAADTAVYYCARLGRRYTMDYWGQGTTVTVSSTRPHTKPSVFVMKNGTNVACLVKEFYPKDIRINLVSSKKITEFDPAIVISPSGKYNAVKLGKYEDSNSVTCSVQHDNKTVHSTDFEVKTDSTDHVKPKETENTKQPSKSCHKPKAIVHTEKVNMMSLTVLGLRMLFAKTVAVNFLLTAKLFFLRAKRSGSGVKQTLNFDLLKLAGDVESNPGPSRGHMTEYKPTVRLATRDDVPRAVRTLAAAFADYPATRHTVDPDRHIERVTELQELFLTRVGLDIGKVWVADDGAAVAVWTTPESVEAGAVFAEIGPRMAELSGSRLAAQQQMEGLLAPHRPKEPAWFLATVGVSPDHQGKGLGSAVVLPGVEAAERAGVPAFLETSAPRNLPFYERLGFTVTADVEVPEGPRTWCMTRKPGA
In the case of B1, in the assay with RAJI cells, the “NFAT-GFP ASSAY: Raji” value was “+ (refer to approximately 5%, 10%, 20%, 30%, 40% and 50% GFP positive cells)”. Moreover, in the assay on L363 cells, the “NFAT-GFP ASSAY: L363” value was “+/- (refer to approximately 5%, 10%, 20%, 30%, 40% and 50% GFP positive cells)”. Also, the “NFAT-GFP ASSAY: U266” value in the assay with U266 cells is “+ (refer to approximately 5%, 10%, 20%, 30%, 40% and 50% GFP positive cells)”.
